B1: EEHEE_rd4_0363 (parent)
chain: VTVDIKGMEYHFDNPEEAKKFAERMAKELGGELKVENGTLKVE

Variants of: B1
Assay: folding stability dG (cDNA display proteolysis); higher = more stable
Details: PBS, room temperature

Folding stability dG [kcal/mol], by site and new letter:
F12: R -0.751 | G -0.303 | H -0.13 | W 0.074 | Q -0.27 | T -0.58 | C 1.66 | N -0.908 | L 0.213 | E -0.877 | I -0.023 | S -0.396 | K -0.237 | Y 0.382 | A -0.113 | M 0.11 | P -0.958 | V -0.424
K20: G 1.18 | M 1.88 | L 2.06 | R 2.18 | Q 2.01 | H 1.53 | C 2.28 | I 2.08 | D 1.7 | A 2.42 | P -0.999 | T 1.67 | Y 1.57 | E 2.08 | F 1.62 | S 1.95 | W 1.67 | V 1.73 | N 1.77
R24: Q 2.04 | L 1.99 | F 2.28 | S 1.72 | T 1.75 | H 1.94 | M 2.11 | D 1.68 | P -0.281 | C 2.83 | E 1.99 | G 1.29 | K 2.01 | W 2.34 | A 2.11 | N 1.55 | I 1.5 | V 1.35 | Y 2.34
F21: L -0.142 | M -0.083 | Q -0.803 | H -0.264 | A -0.089 | I -0.454 | N -0.807 | C 0.708 | W 1.64 | V -0.636 | Y 1.06 | E -0.293
E16: V 1.74 | P -0.084 | S 1.58 | C 2.17 | I 1.71 | M 1.71 | F 1.7 | W 1.98 | G 1.24 | Y 1.79 | R 1.27 | N 1.41 | H 1.63 | K 1.33 | T 1.7 | L 1.65 | Q 1.67 | A 1.78 | D 2.02
N14: E 1.18 | K 1.08 | V 0.902 | F 0.914 | M 0.77 | Y 0.952 | L 1.02 | R 1.15 | W 0.812 | G 1.08 | C 1.81 | D 2.33 | H 1.3 | I 0.929 | Q 0.996 | S 2.11 | A 0.941 | T 2.07
E28: K 1.92 | P 0.477 | A 1.81 | C 2.97 | G 0.795 | W 2.26 | F 1.95 | Q 1.75 | R 1.81 | M 2.03 | V 1.88 | T 1.47 | Y 2.07 | D 1.34 | N 1.28 | L 2.34 | H 1.73 | I 2.18 | S 1.4
L29: N 1.05 | F 1.55 | K 0.78 | H 1.23 | G 0.895 | A 0.915 | D 0.74 | E 0.835 | M 1.69 | I 1.57
A18: R -0.072 | L 0.471 | T -0.52 | I -0.262 | S -0.064 | Q -0.376 | Y 0.753 | F 0.719 | H -0.269 | C 1.03 | M 0.379 | K -0.683 | E -0.431 | V -0.372 | W 0.824 | G 1.46
K27: M 2.19 | T 1.7 | V 1.82 | Y 2.27 | A 2.15 | P 0.089 | Q 2.09 | N 1.75 | G 1.35 | W 2.28 | E 1.77 | L 2.35 | R 2.11 | D 1.56 | H 1.87 | S 1.81 | F 2.35 | I 2.14 | C 2.48
H11: T 1.77 | P 0.291 | M 1.54 | S 1.33 | R 1.87 | N 1.32 | E 0.894 | L 1.55 | W 2.26 | Q 1.39 | G 0.524 | F 2.13 | K 1.73 | Y 2.36 | I 1.77 | V 1.84
A22: C 1.54 | E 0.571 | L 1.48 | G 0.968 | Y 1.06 | V 1.26 | S 0.388 | M 1.39 | I 1.5 | R 1.05 | N 0.039 | T 0.578 | W 1.53 | K 0.798 | H 0.228 | D -0.23 | F 1.23 | Q 0.746
A26: P -0.451 | Q 1.3 | E 0.931 | W 1.48 | D 0.592 | V 1.66 | L 1.64 | H 0.962 | I 1.6 | G 0.834 | N 0.898 | M 1.55 | C 2.06 | K 0.954 | F 1.13 | S 1.3 | Y 0.983 | T 1.23 | R 1.24
M25: I 1.57 | H 0.844 | P -0.009 | F 1.08 | S 0.692 | L 1.45 | W 2.1 | Y 1.34 | N 0.581 | C 2.19 | G 0.03 | T 0.78 | D 0.142 | V 1.44 | K 1.37 | R 1.13 | A 1.37 | Q 1.05 | E 0.574
K19: V 1.96 | Y 2.87 | L 2.74 | D 0.524 | H 1.98 | T 1.71 | N 1.38 | I 2.38 | W 3.27 | Q 2.17 | G 0.835 | S 1.35 | F 2.67 | A 1.65 | R 2.65 | E 1.32 | M 2.67
E23: Y 1.5 | P -0.639 | N 0.999 | S 1.08 | C 2.35 | F 1.27 | A 1.48 | M 1.9 | I 1.87 | R 1.16 | Q 1.65 | L 1.89 | V 1.55 | K 1.34 | T 1.31 | D 1.58 | G 0.124 | H 1.11 | W 1.4
E17: D 2.08 | G 0.569 | P -0.343 | I 1.16 | A 1.7 | W 0.794 | S 1.38 | N 1.11 | Q 1.5 | H 1.2 | F 0.922 | Y 0.905 | V 1.17 | M 1.39 | K 1.16 | C 2.09 | L 1.31 | R 0.908 | T 1.23
D13: K 1.82 | R 1.74 | S 2 | E 1.9 | P 1.6 | N 1.88 | Q 1.73 | I 1.68 | F 1.41 | L 1.68 | T 1.93 | C 2.42 | W 1.58 | G 1.51 | V 1.64 | A 1.95 | Y 1.22 | M 1.68 | H 1.58
P15: E 2.12 | R 1.45 | L 2.6 | A 2.19 | Q 1.75 | V 2.17 | S 1.64 | W 3.73 | N 1.41 | I 2.58 | D 1.58 | G 1.39 | M 2.86 | F 3.22 | Y 3.25 | C 2.33 | H 2.05 | K 1.45 | T 1.52

Source: the MegaScale stability set (Tsuboyama et al. 2023)
